Measured values as given in paper PMC2151542.

Target: MthK channel (Methanobacterium thermoautotrophicum) (UniProt O27564)
Experiment: single-channel recording in planar lipid bilayers

Question: Which Kd does the source give for “charybdotoxin (from UniProt P13487 23-59) (peptide)” here?
Answer: Its Kd is 1 nM.
